Tests used:
human IL-23 [1] = target: T1, human IL-23 (human, UniProt Q9NPF7 20-189; P29460 23-328); assay: kinetic ELISA, soluble polypeptide
T1 construct: Bought recombinant heterodimeric cytokine (eBioscience 34-8239-85 for panning; R&D Systems for the splenocyte assay); also called hIL-23; hIL23
T1 sequence (looked up) 1: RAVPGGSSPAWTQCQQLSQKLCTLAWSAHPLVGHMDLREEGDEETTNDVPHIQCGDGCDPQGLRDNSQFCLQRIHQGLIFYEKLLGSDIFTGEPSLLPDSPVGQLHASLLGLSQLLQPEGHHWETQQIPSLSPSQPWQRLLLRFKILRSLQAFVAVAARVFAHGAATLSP
T1 sequence (looked up) 2: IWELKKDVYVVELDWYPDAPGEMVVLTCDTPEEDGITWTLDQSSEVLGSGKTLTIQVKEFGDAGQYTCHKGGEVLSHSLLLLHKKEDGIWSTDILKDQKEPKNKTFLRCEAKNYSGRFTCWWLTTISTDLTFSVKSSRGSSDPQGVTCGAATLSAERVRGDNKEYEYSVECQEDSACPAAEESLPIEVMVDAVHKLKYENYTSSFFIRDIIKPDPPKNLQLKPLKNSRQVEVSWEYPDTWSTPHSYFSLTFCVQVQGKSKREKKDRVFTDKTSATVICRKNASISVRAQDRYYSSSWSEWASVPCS

human IL-23 [2] = target: T1, human IL-23; assay: standard equilibrium ELISA
human IL-23 [3] = target: T1, human IL-23; assay: standard equilibrium ELISA, soluble polypeptide; MA12
human IL-23 [4] = target: T1, human IL-23; assay: cell-based or functional assay
human IL-23 [5] = target: T1, human IL-23; assay: phage-coated ELISA, clone displayed on phage
human IL-23 [6] = target: T1, human IL-23; assay: equilibrium ELISA, soluble polypeptide

Kd (human IL-23 [1]): 0.26 nM | koff (human IL-23 [1]): 0.00021 s⁻¹ | kon (human IL-23 [1]): 810000 M⁻¹ s⁻¹ | factor better than the non-matured variant C159 (human IL-23 [2]): 38 fold | Kd (human IL-23 [3]): 0.1 nM | functional KD (DB fKD), DB cell assay: Stat3 phosphorylation induced by human IL-23; n data = 2 (human IL-23 [4]): 0.35 nM | functional KD (Spleno fKD), mouse splenocyte assay: IL-17 production induced by human IL-23; n data = 5 (human IL-23 [4]): 0.13 nM | Kd (human IL-23 [5]): 0.08 nM | Kd (human IL-23 [6]): 0.11 nM
B1: MA12 (designed binder)
chain: MSIQEIQKEIAQIQAVIAGIQKYIYTMTGGSGGSGGGGSGGSGGMSIEEIQKQIAAIQCQIAAIQKQIYAMTGSGGGGSGGSGGGGSGMSIEEIQKQIAAIQEQILAIYKQIMAMVT
notes: also called MAl2
